Experimental data published in article PMC2747047.

Tests used:
Experiment in all cases: purified protein
[1] = tested on: O=C(Cc1cccs1)N[C@@H]1C(=O)N2C(C(=O)O)=C(/C=C/c3ccc([N+](=O)[O-])cc3[N+](=O)[O-])CS[C@H]12; type: biochemical, Arabidopsis thaliana; details: 10 mM MOPS, pH 7.2 (as in Figure 2), Fe/Zn enzyme
[2] = tested on: C[C@@H](O)[C@H]1C(=O)N2C(C(=O)O)=C(SCCN=CN)C[C@H]12; details: Fe/Zn enzyme; buffer not told in main text
[3] = tested on: CO/N=C(\C(=O)N[C@@H]1C(=O)N2C(C(=O)O)=C(COC(C)=O)CS[C@H]12)c1csc(N)n1; details: Fe/Zn enzyme; buffer not told in main text

Glx2-1 (Arabidopsis thaliana) showed a Km [1] of 9.9 ± 1.6 µM, a kcat [1] of 1.20 ± 0.04 s⁻¹ and a Km [2] of 23 ± 3 µM. It also gave a kcat [2] of 0.20 ± 0.01 s⁻¹, a Km [3] of 25 ± 5 µM and a kcat [3] of 0.20 ± 0.01 s⁻¹.
